For this test, the target named is C-phycocyanin, Q54715;Q54714. As to the kind of experiment: SPR. The following applies: chain shown with the change, 2 µM analyte, 20 µl/min, 25°C, CPC-coated chip, read off a plot.

B1: GST-fused PPC2 domain of metalloprotease E495 F5A (protein)
chain: GWTRATQNLDAGYSSLDISMAGGSGDADLYVNFGSASSTSSYECRPYKNGNVETCTIENPQAGTWYIDLQG
With B1, the response (parent: est. 53) turned out to be 35 RU.

B2: GST-fused PPC1 domain of metalloprotease E495 F5A (protein)
chain: EQLFATLDVPAGASNLVFNTNGGSGDADLYVRFGSKPTLSTYDCNSTTSTSTESCSIGSAQAGTYYVMVEA
On to B2, for which, where the note is “parent: est. 57”, the response came out at 33 RU.

(Values after article PMC3327674, “Structural and Functional Characterization of Mature Forms of Metalloprotease E495 from Arctic Sea-Ice Bacterium Pseudoalteromonas sp. SM495” (PLoS ONE, 2012).)
